Results from the DeepSol protein solubility set.

Experiment: soluble on expression in E. coli; label from the status in PepcDB or PDB records

Row | Sequence | soluble on expression in E. coli
1 | MKFLQKEELRTLLQSLDLQSGINNDWFLLLIAKTGMRYAEALALTPSDFDWVNATVTIDKSWDYKTHRGFKKTKSTASDREIAIDWQIVGQFKPLIQDLPANDPIFIEKTERGTYKKQYNSTMNNYLEAKCKTLTITVISLHALRHTHASVLLAEGVSIHTISARLGHADVGVTQEIYAHVLDELQKKDDQKMMSVLMQIALEHHHHHH | soluble
2 | MGLEVAADSVGSALAAQDGGAIRVELCGGLDGGGLTPSFGTLAVVRERLQIPLYVLIRPRVGDFVFDAAEVEVMRRDVEQCVRLGCDGVVLGALDPQGQVDLPAMRALIEAAGTLGVTFHRAIDVSADPARVLEDAITLGCERVLTSGARASALEGVETIAALVRQAGERISIMPGAGVSAANVQALRAGTGAREFHASARGPVAAQVHAPHPYITDLGGDYQRTDVARVRSIVQLLQTALEHHHHHH | not soluble
3 | MAQHVKKPEWLKIRLGGNEKFTETKSIVEGHCLHTICTSGKCPNMGECWSRGTATFMIGGDICTRACRFCNTLTGRPKPLNEAEPTHVALSIKLMGLNHAVVTSVDRDDLPDYGAAHWVKTIQEIRRINSGVTLEVLIPDFKGRMDLVDMIIEASPDVISHNLETVRRLTPSVRSVATYDTSLAVLRHIAQSGKMPAKTGMMLGLGETEEEILELMDDALAAGVSVITIGQYLQPSRKNLPVVEYITPEQFEHLRLVGIEKGFRTIESAPLVRSSYHAERHL | not soluble
4 | MLSPITLEALHILDAIERRGSFAAAANELNRAPSSLSYQIQKLEQDLDLMIFDRSGHRANFTEAGKLILERGRAILAATEKLVNDATLLANGWELDITIALDGIVPAANLFPMVEALGNISKTRVRIQDEILAGCWEALATGRADLLICPRIEALPQDVKAETIGTMKMIWVAAPTHYVHRRSGEFNEEAREKYRAIAIADTAREQPAMSVNILQRQPRLTVSNLDAKCKALVAGLGIGTLPLQVAQPYIDKGELKAIHGSEDLEMDIVLAWRRNQMGEAKSWCIQYLKKNWRWE | not soluble
5 | MRSVKVYEETWPLHTPFVIARGSRSEAHVVVVELEEEDVKGIGECTPYPRYGESDASVMAQIMSIVPQLENGLTREALQKLLPAGAARNAVDSALWDLQARQRQQSLAGLLGVTLAPVFTTAQTVVIGTPEQMAASAAALWEKGATLLKIKLDARLISERMVAIRSAVPEATLIVDANESWRPEGLAARCQLLADLNVAMLEQPLPAQDDAALENFIHPLPICADESCHTRSSLKALTGRYDMINIKLDKTGGLTEALALATEAREQGFGLMLGCMLCTSRAISAALPLMPQVSFADLDGPTWLAVDVEPALRFTTGQLHL | not soluble
6 | MGSDKIHHHHHHMAVLVTRPDERGQQLVDMLAKAGVVAIHLPLFRIESGAELNELPNKFAKLKNGDYVFAVSKSAVDFAFKTLTATGFVWRHDLHYFTVGQGTAQYFTATTEMPVHYPTAQENSEGLLQLNAMQDLSDKTVLILRGNGGRELFAEQAQQRGANVEIVECYRREPIVYNNAEQTSICKRAGIQTIVVTSAEILTQLVDFVPQNEHNWLKSCQLITVSERIAHLAEALGWQNVVISPRADNQTLLQTLLQCR | not soluble
7 | MAISFDYSNALPFMQENELDYLSEFVKAAHHMLHERKGPGSDFLGWVDWPIRYDKNEFSRIKQAAERIRNHSDALVVIGIGGSYLGARAAIEALSHTFHNQMNDTTQIYFAGQNISSTYISHLLDVLEGKDLSINVISKSGTTTEPAIAFRIFRDYMEKKYGKEEARKRIYVTTDRTKGALKKLADQEGYETFVIPDNIGGRYSVLTAVGLLPIAVAGLNIDRMMEGAASAYHKYNNPDLLTNESYQYAAVRNILYRKGKAIELLVNYEPSLHYVSEWWKQLFGESEGKDQKGLFPASVDFTTDLHSMGQYVQEGRRNLIETVLHVKKPQIELTIQEDPENIDGLNFLAGKTLDEVNKKAFQGTLLAHVDGGVPNLIVELDEMNEYTFGEMVYFFEKACGISGHLLGVNPFDQPGVEAYKKNMFALLGKPGFEDEKAALMKRLSK | soluble
8 | RMSSQIRQNYSTDVEAAVNSLVNLYLQASYTYLSLGFYFDRDDVALEGVSHFFRELAEEKREGYERLLKMQNQRGGRALFQDIKKPAEDEWGKTPDAMKAAMALEKKLNQALLDLHALGSARTDPHLCDFLETHFLDEEVKLIKKMGDHLTNLHRLGGPEAGLGEYLSSKGSLSSTTKSLLSPATSEGPLAK | soluble
9 | MKQITGVYTAPRPHWVGDGFPVRSLFSYQSHAQQLSPFLLLDYAGPHTFTPGNEKRGVGEHPHRGFETVTIVYSGEVEHRDSTGRGGVIGPGDVQWMTAGAGILHEEFHSDAFTRRGGELEMVQLWVNLPMKDKMTTPGYQSITHDVIPTVTLPDNAGVVRVIAGRYEETKGPAHTFSPLNVWDMRLQRNRQLTLAQPEGWSTALVVLKGNITVNGTTPVNEAQLVVLSQQGKTLHLEASSDASVLLLSGEPLNEPIVGYGPFVMNTKQEIAEAVRDFNSGRFGQI | not soluble
10 | MAHHHHHHMQRPTTARYRGRRESSAASRKLAKKPHSLMDELPPCPPSPYKWKQHRQHDGHHISVTAAFIRGRRNMRVGAAAISAIAASPFPVDGATKAAKSSPAFPMRALVVAGTHDSDAVEGNNDDEAIFELFFREAQLHYHISAEENMRNHLLAGEEVAFTNLMIEALQARAELLAGDEAAELVIRDAQKRAQERQAMMKEIEKTVALRLHDERMAQLLAMEFEALLPAHGAGCERILREEAADLGEVFRWHKENRPLGAGCFIEAPVEDSRLTDARRGTGAAKFLESRLALAKGSRRASCARSSRVYLAQLLQKGTSSRCSAAALGPLAVAAGEAPASLLDGTLPVMDEALFQEEGRARLQAAKDQRYLALRGLRAVSDIRQAAAAAREKVLAEEAMCWMQIARLEVDGIYAAQEATRERKKREASADAATTHRAAQKKEVKERLLRQRGRPVPEPDNSAGGDARVQPRISGKSTEEGAQPPKDQAAITEAGALEQPSPRSSSSTVPDNSPLCGALAEGASTTAEANVDAVDELAYLRFVTGEITDPDACKQLSALVSSEVDEEVEKAV | soluble
11 | MGHHHHHHSHVLLNEILEQVKDRTCLRALEKIKIQLEKGNKEFGDQAEAAQDATLTTTTFQNEDEKNKEVYMTPLRGVKATQASKSTQLKTNRGQRKVTVSARTNRRCQTAEADSESDHEVPEPESEMKMRLPRRAKTAALEKSKLNLAQFLNEDLS | not soluble
12 | MEITRLLTLYYEATPDPQNPLEGVRFGTSGHRGSSLKATFTEAHVLAIAQAIAELRPSFGATGPLFLAKDTHALSEPAWATALSVFAAHGIEVRVEADGDYTPTPLVSLAILEHNAHHEAKADGVLLTPSHNPPEDGGFKYNPPTGGPANARITRAIEERANALLQEGLKGVKRLPLREALARAKPFDYAGLYVEKVAEAVDLEAIRASGLRIGVDPLGGASLRVWERLAESHGLPLEVVNPTLDPTFRFMPKDHDGKIRMDCSSPYAMAGLLALKDRFDLAIGNDPDADRHGIVTPRGLMNPNHYLAAALHHLYTTRSWPGAKVGKTAVTSALLDRVAQALGREVYETPVGFKHFVAGLLEGWLGFAGEESAGASFLRFDGRPFSTDKDGILMGLLAAELMAKRGQAPDALYEALAEKLGRPYYARKDLPVSPEAKARLARLSAKEVHPSTLAGEPVLQVLDRATGNGEPLGGIKVVAANAWFAVRPSGTEDVAKVYAESFLGEAHLERVLEEATALLHKALA | soluble
13 | MGSDKIHHHHHHMHARSLDKKPLDRQASIDSALRTVATEQAGIAALAEALENGLAAPFAQAVDMISKIEGRLIVTGVGKSGHIGSKIAATLASTGTPAFFVHPVEANHGDLGMIAKDDAIIAISWSGESKEMLGIVAYSRRFSIPLIAVTSGETSALARAADVVLLLPRTPEACPHGLAPTTSTLLQLVIGDALAIALLEARGFTPDHFRTFHPGGQLGANLTMVSEIMRVGDQMPLAVLGTKMPEAVMTLSQKKVGCVLIVDANGELAGIITDGDVARNLHRNLADVIVDEVMTRTPKTVDPQTLAGTAIALLNEHNIGALVVTRNNMPLGVVHFHDLLRIGAA | not soluble
14 | MAKFIQKRLFASYIIRKNYYEIIGVSASATRQEIRDAFLKKTKQLHPDQSRKSSKSDSRVGWATGSSETEQFMLVKEAYDVLRNEEKRKEYDLAFSREGGFLMEATHKTQEMSTQRRNIQRAEWSADVIPDAKRNSKKVVYSHFRNPEDEYLREKQKNRM | not soluble
